Results published in patent publication US7273847B2, “Peptides with antioxidant and antimicrobial properties” (priority 2000, dated 2007).
Entries after “also recorded” stand apart in the source; their conditions may differ.

B1: SP-D: Native surfactant protein D from rat alveolar wash; mouse SP-D was used interchangeably with rat SP-D (protein)
chain: AEMKSLSQRSVPNTCTLVMCSPTENGLPGRDGRDGREGPRGEKGDPGLPGPMGLSGLQGPTGPVGPKGENGSAGEPGPKGERGLSGPPGLPGIPGPAGKEGPSGKQGNIGPQGKPGPKGEAGPKGEVGAPGMQGSTGAKGSTGPKGERGAPGVQGAPGNAGAAGPAGPAGPQGAPGSRGPPGLKGDRGVPGDRGIKGESGLPDSAALRQQMEALKGKLQRLEVAFSHYQKAALFPDGRSVGDKIFRTADSEKPFEDAQEMCKQAGGQLASPRSATENAAIQQLITAHNKAAFLSMTDVGTEGKFTYPTGEPLVYSNWAPGEPNNNGGAENCVEIFTNGQWNDKACGEQRLVICEF

Assays:
E. coli strain (E69) = assay: Growth inhibition (radius of clearing) of E. coli clinical isolate with or without OmpA; format: cell-based; conditions: for Growth inhibition of ΔOmpA bacteria with plasmid driven OmpA expression: OmpA replaced; for Growth inhibition of OmpA deficient (ΔOmpA) E. coli: judged by the radius of clearing around the well
Protocol: SP-A has been reported to bind to the outer membrane protein (OmpA) of Hemophilus influenza, a porin that facilitates the uptake of nutrients from the environment. The hypothesis that binding of collectins to OmpA mediates bacterial growth inhibition by SP-A and SP-D was tested. These experiments were performed using a genetically engineered clinical isolate of E. coli that was rendered OmpA deficient (ΔOmpA) by transposon mutagenesis.

E. coli = assay: Light scattering by growing bacteria in broth (O.D. 400 nm); conditions: for Blocking of attenuation of light scattering by J5 LPS vesicles: 300 μg/ml J5 LPS vesicles, 100 μg/ml collectin
model surfactant lipids = assay: AIBN-initiated lipid peroxidation of model surfactant lipids; format: biochemical; conditions: 3 hours incubation, with or without low concentrations of copper; preliminary data
LDL [1] = assay: TBARS assay of copper-induced oxidation of LDL; format: biochemical, human; conditions: for I.C.50 (half-maximal point) for inhibition of copper-induced oxidation of LDL / Concentration of complete inhibition of LDL oxidation (to basal levels) / IC50: 10 μM Cu2+, TBARS; for I.C.50 (half-maximal point) for inhibition of copper-induced oxidation of LDL: 4 hours; for IC50: read-out: I.C.50 for inhibition of copper-induced oxidation of LDL; for TBARS LDL Malondialdehyde: mean ± S.E.M., n=3; for Concentration required to provide the same level of antioxidant protection: LDL, level of 500 μg/ml of rat serum
Protocol: Substrates for lipid oxidation included mixtures of natural and synthetic glycerophospholipids that are found in pulmonary surfactant and human LDL. The surfactant lipid mix, composed of egg phosphatidylcholine, dipalmitoylphosphatidylcholine, cholesterol and 1-oleoyl-2-linoleoyl-sn-glycero-3-phosphocholine (1:1:0.15:0.15, w/w, respectively) (Avanti Polar Lipids) in chloroform, was dried to a film under nitrogen. Following hydration in PBS or 0.15 M NaCl for 30 min, multilamellar vesicles were generated by vigorous vortexing for 5 minutes. LDL were isolated from the plasma of normal blood donors by density gradient ultracentrifugation (density=1.019-1.063 g/ml) as previously described in Qin et al., Am. J. Physiol. 274(5 Pt 2): H1836-1840 (1998), and stored in saline-EDTA. Just prior to use, EDTA was removed by dialysis against PBS, and the concentration of LDL was determined by Lowry assay (in milligrams of LDL-associated protein).
(§1) Stock solutions of 10 mM CuSO4 were freshly prepared daily. Reaction mixtures containing 1 mg/mi surfactant lipids or 150 μg/ml LDL were incubated with 10 μM CuSO4 for 24 hours or 4 hours, respectively, in the presence of putative oxidation inhibitors or controls at 37° C. in a shaking water bath in accordance with the method of Gelvan et al., Biochim. Biophys. Acta 1035(3):353-360 (1990). Control reactions which included LDL only, 10 μM CuSO4 or protein controls of bovine serum albumin (BSA), rat IgG, recombinant MBP, rat serum and human complement C1q were performed concurrently with experimental samples. Thiobarbituric acid-reactive substances (TBARS) were measured using a method adapted from Gelvan et al., Biochim. Biophys. Acta 1035(3):353-360 (1990). Samples and 0-10 μM […] standards were developed by addition of a solution composed of 0.375% thiobarbituric acid, 15% trichloroacetic acid, and 0.25N HCl at a volume ratio of 1:2, sample: developer. Following incubation at 95° C. for 30 minutes and centrifugation at 14,000 rpm for 15 minutes, an aliquot was read at 540 nm in a spectrophotometer. For continuous assessment of lipid oxidation, the accumulation of conjugated dienes during LDL oxidation was monitored spectrophotometrically in accordance with the method of Esterbauer et al., Free Rad. Med. Biol. 13, 341-390 (1992). Mixtures of 150 μg/ml LDL, 10 μM copper, and various amounts of surfactant proteins or control proteins were placed in quartz cuvettes and allowed to oxidize at room temperature over 335 minutes. Conjugated diene formation was assessed by measuring absorbance at 234 nm in a spectrophotometer.
The data are set forth graphically in FIG. 3. Various concentrations of recombinant wild type SP-A (circle), mutant SP-A containing a deletion of the collagen-like domain (square) and mutant SP-A containing only the neck and C-lectin domain (CLD) (triangle) were incubated with LDL in the presence of 10 μM Cu^2+, and lipid peroxidation was quantified by TBARS assay. Data are means, n=3-4.

E. coli K12 = assay: Radial diffusion growth inhibition in agar; format: cell-based; conditions: radial diffusion, overnight 37° C.
Protocol: (§2) A radial diffusion method was therefore used to examine the effect of the collectins and their individual structural domains on the growth of E. coli that were immobilized in agar (FIGS. 8,9). Wells were bored into plates containing agar impregnated with 2×10^6 E. coli/ml or GBS. Proteins to be tested were introduced into the wells and the plates were incubated overnight at 37° C.

GBS = assay: Radial diffusion growth inhibition in agar; format: cell-based; conditions: radial diffusion (not shown)
Protocol: as §2

LDL [2] = assay: Continuous spectrophotometric monitoring of conjugated diene formation during copper-induced LDL oxidation; format: biochemical, human; conditions: for Effect of addition during the propagation phase of oxidation: 10 μg/ml SP-A at 95, 175 or 195 minutes, 1 μg/ml SP-D at 95, 125 or 155 minutes; for Effect on accumulation of conjugated dienes when included at zero time: SP-A 1.0-10 μg/ml, SP-D 0.01-1 μg/ml; for Concentration of complete inhibition of oxidation (conjugated diene formation): added at zero time, 10 μM copper, room temperature, absorbance 234 nm
Protocol: as §1
The temporal relationship between the addition of SP-A or SP-D and the inhibition of LDL oxidation was determined spectrophotometrically by continuously monitoring conjugated diene accumulation associated with exposure to copper, in accordance with the method of Esterbauer et al., Free Rad. Med. Biol. 13:341-390 (1992). The assay is based on the oxidation dependent rearrangement of 1,4 pentadienyl double bonds of LDL lipids to 1,3-butadienyl double bonds, which absorb in the ultraviolet range. In the presence of 10 μM copper at room temperature, LDL particles resist oxidation for up to 100 minutes as endogenous antioxidants such as atocopherol are consumed. At that point, the rate of oxidation increases in proportion to the concentration of initiating radicals, reaching a plateau when all unsaturated fatty acids are consumed.
According to FIG. 2, conjugated diene formation during copper-induced LDL oxidation was monitored spectrophotometrically by measuring absorbance at 234 nm.

Molecule	Growth inhibition of ΔOmpA bacteria with plasmid driven OmpA expression (E. coli strain (E69))	Growth inhibition of ΔOmpA organism with empty vector control (E. coli strain (E69))	Growth inhibition of OmpA deficient (ΔOmpA) E. coli (E. coli strain (E69))	Growth of parental E. coli strain (E69) (E. coli strain (E69))	Blocking of attenuation of light scattering by J5 LPS vesicles (E. coli)	Inhibition of AIBN-initiated LPO (model surfactant lipids)	I.C.50 (half-maximal point) for inhibition of copper-induced oxidation of LDL (LDL [1]) [µg/mL]	Concentration of complete inhibition of LDL oxidation (to basal levels) (LDL [1]) [µg/mL]	IC50 (LDL [1]) [nM]	TBARS LDL Malondialdehyde (LDL [1]; LDL + Cu2+ + 10 μg/ml protein) [µM]	Concentration required to provide the same level of antioxidant protection (LDL [1]) [µg/mL]	Growth of E. coli K12 (E. coli K12)	Growth of GBS (GBS)	Effect of addition during the propagation phase of oxidation (LDL [2])	Effect on accumulation of conjugated dienes when included at zero time (LDL [2])	Concentration of complete inhibition of oxidation (conjugated diene formation) (LDL [2]) [µg/mL]	Time dependent increase in light scattering (E. coli; 100 μg/ml)	TBARS LDL Malondialdehyde (LDL [1]; LDL + Cu2+ + 1 μg/ml protein) [µM]
SP-A: Native surfactant protein A isolated from the alveolar wash of silica-pretreated rats	attenuated growth inhibition	inhibited to the same extent as the ΔOmpA organism	growth inhibition was increased	inhibited the growth	completely	did not inhibit LPO, unless copper was added at low concentrations	4.75	10	7.9	0.0 ± 0.0	2.5	inhibited the growth	not GBS	arrested lipid oxidation almost immediately; also recorded: conjugated diene formation was completely arrested at the point of addition	blocked the accumulation of conjugated dienes in a dose-dependent manner	10	–	–
B1	attenuated growth inhibition	inhibited to the same extent as the ΔOmpA organism	growth inhibition was increased	inhibited the growth	partially	did not inhibit LPO, unless copper was added at low concentrations	0.14	1	0.3	–	0.05	inhibited the growth	not GBS	arrested lipid oxidation almost immediately; also recorded: conjugated diene formation was completely arrested at the point of addition	blocked the accumulation of conjugated dienes in a dose-dependent manner	0.5	inhibited	0.0 ± 0.0
